Where no end group is shown, it is not given here.
B1: DBD–Ligase IV (amino acids 1–240) (domain or fragment)
chain: MAASQTSQTVASHVPFADLCSTLERIQKSKGRAEKIRHFREFLDSWRKFHDALHKNHKDVTDSFYPAMRLILPQLERERMAYGIKETMLAKLYIELLNLPRDGKDALKLLNYRTPTGTHGDAGDFAMIAYFVLKPRCLQKGSLTIQQVNDLLDSIASNNSAKRKDLIKKSLLQLITQSSALEQKWLIRMIIKDLKLGVSQQTIFSVFHNDAAELHNVTTDLEKVCRQLHDPSVGLSDISI

Experiments:
[1] = molecular target: B1; test: fluorescence polarisation
[2] = molecular target: GST–Artemis C terminus (human, UniProt Q96SD1 386-692); test: pull-down
Sequence of GST–Artemis C terminus (Q96SD1 386-692): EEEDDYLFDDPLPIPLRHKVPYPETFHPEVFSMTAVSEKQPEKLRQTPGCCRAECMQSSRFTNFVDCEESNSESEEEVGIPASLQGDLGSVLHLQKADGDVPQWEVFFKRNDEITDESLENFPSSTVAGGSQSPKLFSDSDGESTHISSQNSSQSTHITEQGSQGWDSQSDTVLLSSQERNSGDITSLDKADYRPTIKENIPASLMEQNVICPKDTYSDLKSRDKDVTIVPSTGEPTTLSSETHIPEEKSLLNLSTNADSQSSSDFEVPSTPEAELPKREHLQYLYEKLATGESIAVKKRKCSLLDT

Binder	Kd [1]	binding result [2]
{FAM}-DVPQWEVFFKR [Ligase IV–interacting human Artemis peptide, WT]	~2600 nM	
B1		binds

From publication PMC3348108 (The Journal of Experimental Medicine, 2012)
